Assay results reported in patent US20100311820, “NUCLEIC ACID MODULATORS OF GLYCOPROTEIN VI” (Regado Biosciences, Inc, published 2010).

Legend:
[1] = molecular target: T1, Glycoprotein VI extracellular domain (Gln21-Lys267) (Homo sapiens) (UniProt Q9HCN6); test: filter
T1 sequence: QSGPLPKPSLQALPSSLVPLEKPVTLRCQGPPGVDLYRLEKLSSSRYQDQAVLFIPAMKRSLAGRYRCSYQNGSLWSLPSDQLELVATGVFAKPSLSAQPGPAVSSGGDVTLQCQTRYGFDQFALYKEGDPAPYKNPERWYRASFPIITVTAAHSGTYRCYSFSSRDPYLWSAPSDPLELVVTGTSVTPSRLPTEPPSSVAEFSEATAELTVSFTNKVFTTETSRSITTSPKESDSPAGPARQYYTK

[2] = molecular target: T2, Glycoprotein VI extracellular domain (Gln21-Lys267) (Homo sapiens, UniProt Q9HCN6 SEQ:1-247); test: competition; competition with radiolabeled parent ligand; details: tags: C-terminal His6; R&D Systems 3627-GP
T2 chain: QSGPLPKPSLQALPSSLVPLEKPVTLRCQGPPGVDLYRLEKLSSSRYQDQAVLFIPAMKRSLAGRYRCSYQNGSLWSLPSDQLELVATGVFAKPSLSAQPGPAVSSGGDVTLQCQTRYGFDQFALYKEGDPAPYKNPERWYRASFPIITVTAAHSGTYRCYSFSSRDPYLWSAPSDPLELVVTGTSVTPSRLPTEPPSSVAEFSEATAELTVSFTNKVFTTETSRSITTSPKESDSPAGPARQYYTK

[3] = molecular target: T2, Glycoprotein VI extracellular domain …; test: filter; details: tags: C-terminal His6; R&D Systems 3627-GP; label: 5'-32P
Procedure: (§1) Enrichment of the ligand libraries for GPVI was monitored in direct binding studies utilizing radiolabeled ligand RNA from respective rounds of SELEX and soluble GPVI. Binding studies were performed with trace P³² end-labeled RNA added to serial dilutions of GPVI in Binding Buffer F. To prepare radiolabeled RNAs for binding studies, one hundred picomoles of RNA was dephosphorylated with Bacterial Alkaline Phopshatase at 50° C. for 1 hour. The reaction was phenol:chloroform:isoamyl alcohol (25:24:1) extracted, chloroform: isoamyl:alcohol (24:1) extracted, and ethanol precipitated. Three pmoles of dephosphorylated RNA was end labeled with T4 Poylnucleotide Kinase with supplied buffer, and 20 μCi of γ-P³²-ATP and subsequently cleaned with a Biorad MicroBio Spin P-30 spin column. End-labeled RNA was diluted to a final concentration of 2000 cpm/μL and heat denatured at 65° C. for 5 minutes. RNA and GPVI dilutions were equilibrated at 37° C. prior to use. RNA (5 μL) was added to varying concentrations of GPVI (15 μL) at 37° C. and incubated together for 5 to 15 minutes. The complexed RNA/GPVI protein mixture was then loaded over a Protean BA85 nitrocellulose membrane, overlayed on a Genescreen Plus Nylon membrane, in a 96 well vacuum manifold system with washing. The membranes were exposed to a phosphorimager screen, scanned, and quantitated with a Molecular Dynamics Storm 840 Phosphorimager. The fraction bound was calculated by dividing the counts on the nitrocellulose by the total counts and adjusting for the background. Results for binding of enriched ligand libraries from round 10 E2 and round 10 EF of the SELEX as compared to the GPVI-naïve starting ligand library are shown in FIG. 3.

[4] = molecular target: T2, Glycoprotein VI extracellular domain …; test: filter; equivalent to full-length EF-1; details: tags: C-terminal His6; R&D Systems 3627-GP; label: 5'-32P
Procedure: as §1, with “The complexed RNA/GPVI protein mixture was then loaded over a Protean BA85 nitrocellulose membrane, overlayed on a Genescreen Plus Nylon membrane, in a 96 well vacuum manifold system with washing.” left out, “Results for binding of enriched ligand libraries from round 10 E2 and round 10 EF of the SELEX as compared to the GPVI-naïve starting ligand library are shown in FIG. 3.” left out

[5] = molecular target: T2, Glycoprotein VI extracellular domain …; test: competition; competition with radiolabeled parent; details: tags: C-terminal His6; R&D Systems 3627-GP
[6] = molecular target: T2, Glycoprotein VI extracellular domain …; test: filter; text p359 names it EF-3 T2mut8; details: tags: C-terminal His6; R&D Systems 3627-GP; label: 5'-32P
Procedure: as §1, with “The complexed RNA/GPVI protein mixture was then loaded over a Protean BA85 nitrocellulose membrane, overlayed on a Genescreen Plus Nylon membrane, in a 96 well vacuum manifold system with washing.” left out, “Results for binding of enriched ligand libraries from round 10 E2 and round 10 EF of the SELEX as compared to the GPVI-naïve starting ligand library are shown in FIG. 3.” left out

[7] = molecular target: T2, Glycoprotein VI extracellular domain …; test: filter; text p359 names it EF-3 T2mut10; details: tags: C-terminal His6; R&D Systems 3627-GP; label: 5'-32P
Procedure: as §1, with “The complexed RNA/GPVI protein mixture was then loaded over a Protean BA85 nitrocellulose membrane, overlayed on a Genescreen Plus Nylon membrane, in a 96 well vacuum manifold system with washing.” left out, “Results for binding of enriched ligand libraries from round 10 E2 and round 10 EF of the SELEX as compared to the GPVI-naïve starting ligand library are shown in FIG. 3.” left out

[8] = molecular target: T2, Glycoprotein VI extracellular domain …; test: filter; text p359 names it EF-3 T2 mut9; details: tags: C-terminal His6; R&D Systems 3627-GP; label: 5'-32P
Procedure: as §1, with “The complexed RNA/GPVI protein mixture was then loaded over a Protean BA85 nitrocellulose membrane, overlayed on a Genescreen Plus Nylon membrane, in a 96 well vacuum manifold system with washing.” left out, “Results for binding of enriched ligand libraries from round 10 E2 and round 10 EF of the SELEX as compared to the GPVI-naïve starting ligand library are shown in FIG. 3.” left out

[9] = molecular target: T2, Glycoprotein VI extracellular domain …; test: filter; text: family range about 11 to 50 nM, EF-1 lowest affinity; details: tags: C-terminal His6; R&D Systems 3627-GP; label: 5'-32P
Procedure: as §1, with “RNA and GPVI dilutions were equilibrated at 37° C. prior to use. RNA (5 μL) was added to varying concentrations of GPVI (15 μL) at 37° C. and incubated together for 5 to 15 minutes. The complexed RNA/GPVI protein mixture was then loaded over a Protean BA85 nitrocellulose membrane, overlayed on a Genescreen Plus Nylon membrane, in a 96 well vacuum manifold system with washing.” left out, “Results for binding of enriched ligand libraries from round 10 E2 and round 10 EF of the SELEX as compared to the GPVI-naïve starting ligand library are shown in FIG. 3.” left out
The affinity of each of the anti-GPVI ligands for GPVI was determined by direct binding studies using radiolabeled trace ligand RNA and soluble GPVI, per the binding methodology described above in Example 1.

[10] = molecular target: T2, Glycoprotein VI extracellular domain …; test: filter; buffer F, 37 C; details: tags: C-terminal His6; R&D Systems 3627-GP; label: 5'-32P

## GGAGGACGGCGCGCCUGGCAUAAGCCUCC [RB507]
[1]; RB490 pattern, hexaethylene glycol spacer between G11 and C12, 3' idT
  Kd: < 10 nM

## GGAGGACGGCGCGCCUGGCAUAAGCCUCC [RB521]
[1]; RB520 pattern, hexaethylene glycol spacer between G11 and C12, 3' idT, buffer F, 37 C
  Kd: 6 nM

## GGGAGGACGACGCGUCUGGCAUAAGCCUCCC [RB536]
[1]; RB535 with 2'-OMe G9
  Kd: > 40 nM

## GGAGGACGGCGCGCCUGGCAUAAGCCUCC [RB537]
[1]; RB526 pattern, hexaethylene glycol spacer between G11 and C12, 3' idT
  Kd: < 10 nM

## GGAGGACGGCGCGCCUGGCAUAAGCCUCC [RB540]
[1]; 2'-OH G1, 2'-deoxy A6,G8,G9, 2'-F C7,C14,C15,U16,C19,U21, all others 2'-OMe, hexaethylene glycol spacer between G11 and C12, 3' idT, buffer F, 37 C
  Kd: 15 nM

## GGAGGACGGCGCGCCUGGCAUAAGCCUCC (ssRNA, RB567 with 5' branched 40 kDa PEG) [RB571]
[2]
  Kd: ~5 nM

## GGAGGACGGCGCGCCUGGCAUAAGCCUCC (ssRNA, RB551 with PS G5-A6) [RB552]
[3]
  Kd: 15.5 nM

## GGGAGGACGUGCGGAUCACACCGCGCUUGCGUAAGCCUCCC (ssRNA, 2'-F C and U; 2'-OH A and G) [EF-3 T3 (RB445)]
[3]
  Kd: > 40 nM

## GGGAGGACGAUGCGGCAAUCGAAGCUGCAUCCAGCGUAAGCCUUCC (ssRNA, 2'-F C and U; 2'-OH A and G) [EF-1 T1 (RB426)]
[4]
  Kd: > 40 nM

## GGAGGACGGCGCGCCUGGCAUAAGCCUCC (ssRNA, RB560 with 5' branched 40 kDa PEG) [RB569]
[5]
  Kd: < 10 nM

## GGAGGACGGCGCGCCUGGCAUAAGCCUCC (ssRNA, RB542 with 5' branched 40 kDa PEG) [RB570]
[5]
  Kd: 15.5 nM

## GGGAGGACGGCGAUCACACGCCUGGCGUAAGCCUCCC (ssRNA, 2'-F C and U; 2'-OH A and G) [EF-3 T5 mut8]
[6]
  Kd: 15.5 nM

## GGGAGGACGGCGAUCACACGCCUGGCAUAAGCCUCCC (ssRNA, 2'-F C and U; 2'-OH A and G) [EF-3 T5 mut10]
[7]
  Kd: 15.5 nM

## GGGAGGACGGCGAUCACACGCCUUGCAUAAGCCUCCC (ssRNA, 2'-F C and U; 2'-OH A and G) [EF-3 T5 mut9]
[8]
  Kd: 15.5 nM

B1: EF-1 (RB424) (ssRNA)
RNA: GGGAGGACGAUGCGGCAAUCGAAGCUGCAUCCAGCGUAAGCCUUCCAGGGAUCGUCAGACGACUCGCUGAGGAUCCGAGA
modifications: 2'-F C and U; 2'-OH A and G
[9]
  Kd: > 40 nM

## GGGAGGACGGCGCUAACGCCUGGCAUAAGCCUCCC (ssRNA, 2'-F C and U; 2'-OH A and G; 3' idT) [RB448]
[10]
  Kd: ~14.5 nM

## GGGAGGACGGCGCUAACGCCUGGCAUAAGCCUCCC (ssRNA, RB448 with 2'-OMe G23,C30) [RB462]
[3]
  Kd: < 10 nM
